Experimental data published in patent publication US20140274782A1 (Stanford University, published 2014).

Key:
Test in all cases: ProtoArray, GST-treated control array;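 further: human protein microarray (about 9500 recombinant proteins) incubated overnight with GST alone plus SAM cofactor as the negative control for G9a SET domain methylation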
[1] = biological target: T1, SNFT-Jun dimerization protein p21SNFT (SNFT) (human, UniProt Q9NR55 1-127)
T1 sequence (looked up): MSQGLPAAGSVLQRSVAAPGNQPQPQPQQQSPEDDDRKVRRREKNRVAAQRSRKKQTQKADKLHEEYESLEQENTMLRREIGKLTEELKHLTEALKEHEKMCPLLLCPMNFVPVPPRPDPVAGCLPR

[2] = biological target: KRR1-KRR1, small subunit (SSU) processome component, homolog (yeast) (KRR1) (human, UniProt Q13601 1-381, limits assumed)
Chain of KRR1-KRR1, small subunit (SSU) processome component, homolog (yeast) (KRR1) (Q13601 whole entry): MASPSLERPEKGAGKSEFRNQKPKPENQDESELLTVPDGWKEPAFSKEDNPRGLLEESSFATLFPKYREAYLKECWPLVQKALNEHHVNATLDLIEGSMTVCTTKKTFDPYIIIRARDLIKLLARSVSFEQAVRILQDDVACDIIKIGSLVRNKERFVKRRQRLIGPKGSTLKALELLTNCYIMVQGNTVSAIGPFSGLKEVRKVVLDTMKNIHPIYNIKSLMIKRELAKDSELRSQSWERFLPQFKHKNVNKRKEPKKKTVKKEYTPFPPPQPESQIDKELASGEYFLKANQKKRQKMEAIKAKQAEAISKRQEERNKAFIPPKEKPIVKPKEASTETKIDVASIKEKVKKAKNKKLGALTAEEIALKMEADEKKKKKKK

[3] = biological target: T2, GPR108-G protein-coupled receptor 108 (GPR108) (human, UniProt Q9NPR9 33-543, limits assumed)
T2 sequence (looked up): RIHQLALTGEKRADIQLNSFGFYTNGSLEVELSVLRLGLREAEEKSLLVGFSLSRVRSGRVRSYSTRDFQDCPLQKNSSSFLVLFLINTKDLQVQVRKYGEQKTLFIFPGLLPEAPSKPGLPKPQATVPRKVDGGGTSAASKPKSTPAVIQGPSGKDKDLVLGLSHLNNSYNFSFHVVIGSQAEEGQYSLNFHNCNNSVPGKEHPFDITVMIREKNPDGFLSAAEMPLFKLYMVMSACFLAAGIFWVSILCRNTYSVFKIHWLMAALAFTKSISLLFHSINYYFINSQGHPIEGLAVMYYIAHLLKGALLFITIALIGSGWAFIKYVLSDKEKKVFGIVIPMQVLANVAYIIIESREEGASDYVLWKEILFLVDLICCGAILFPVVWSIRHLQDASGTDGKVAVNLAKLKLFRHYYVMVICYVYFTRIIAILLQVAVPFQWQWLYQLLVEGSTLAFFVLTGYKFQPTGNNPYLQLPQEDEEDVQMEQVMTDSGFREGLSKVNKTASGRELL

[4] = biological target: T3, TMED5-transmembrane emp24 protein transport domain containing 5 (TMED5) (human, UniProt Q9Y3A6 28-229, limits assumed)
T3 sequence (looked up): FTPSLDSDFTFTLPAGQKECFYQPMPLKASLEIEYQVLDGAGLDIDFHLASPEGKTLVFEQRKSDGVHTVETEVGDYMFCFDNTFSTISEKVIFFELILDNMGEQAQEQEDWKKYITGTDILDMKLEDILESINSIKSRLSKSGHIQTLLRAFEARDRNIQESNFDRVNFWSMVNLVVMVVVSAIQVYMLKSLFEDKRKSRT

[5] = biological target: T4, GGPS1-Geranylgeranyl pyrophosphate synthetase (human, UniProt O95749 1-300)
T4 sequence (looked up): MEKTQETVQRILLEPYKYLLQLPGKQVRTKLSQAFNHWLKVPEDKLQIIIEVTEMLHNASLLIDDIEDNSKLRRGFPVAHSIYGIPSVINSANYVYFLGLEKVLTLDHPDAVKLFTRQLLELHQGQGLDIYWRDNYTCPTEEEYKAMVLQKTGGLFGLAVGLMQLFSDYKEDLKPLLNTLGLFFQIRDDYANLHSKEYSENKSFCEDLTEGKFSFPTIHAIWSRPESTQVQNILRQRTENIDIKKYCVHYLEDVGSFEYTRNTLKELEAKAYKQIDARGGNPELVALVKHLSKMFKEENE

[6] = biological target: T5, RASSF4-Ras association (RaIGDS/AF-6) domain family 4 (RASSF4) (human, UniProt Q9H2L5 1-321, limits assumed)
T5 sequence (looked up): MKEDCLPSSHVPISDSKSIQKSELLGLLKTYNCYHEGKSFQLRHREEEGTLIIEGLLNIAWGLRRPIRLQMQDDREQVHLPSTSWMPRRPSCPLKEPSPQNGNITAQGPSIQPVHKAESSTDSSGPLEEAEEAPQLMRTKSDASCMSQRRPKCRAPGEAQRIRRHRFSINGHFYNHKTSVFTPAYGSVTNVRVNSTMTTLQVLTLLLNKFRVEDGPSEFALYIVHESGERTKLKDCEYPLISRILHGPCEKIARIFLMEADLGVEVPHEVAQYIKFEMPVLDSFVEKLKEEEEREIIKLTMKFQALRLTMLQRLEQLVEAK

[7] = biological target: T6, RHBDD1-rhomboid domain containing 1 (RHBDD1) (human, UniProt Q8TEB9 1-315, limits assumed)
T6 sequence (looked up): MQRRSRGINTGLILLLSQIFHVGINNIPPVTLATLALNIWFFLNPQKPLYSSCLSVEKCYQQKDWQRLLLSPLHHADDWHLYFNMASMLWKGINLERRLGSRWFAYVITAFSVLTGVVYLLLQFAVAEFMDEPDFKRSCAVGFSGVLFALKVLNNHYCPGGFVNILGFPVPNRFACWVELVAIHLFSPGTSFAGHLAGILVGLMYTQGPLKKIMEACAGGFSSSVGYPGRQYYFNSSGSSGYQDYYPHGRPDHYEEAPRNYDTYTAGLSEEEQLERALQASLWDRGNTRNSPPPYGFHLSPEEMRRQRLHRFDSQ

[8] = biological target: CA13-carbonic anhydrase XIII (CA13) (human, UniProt Q8N1Q1 1-262)
Chain of CA13-carbonic anhydrase XIII (CA13) (Q8N1Q1 whole entry): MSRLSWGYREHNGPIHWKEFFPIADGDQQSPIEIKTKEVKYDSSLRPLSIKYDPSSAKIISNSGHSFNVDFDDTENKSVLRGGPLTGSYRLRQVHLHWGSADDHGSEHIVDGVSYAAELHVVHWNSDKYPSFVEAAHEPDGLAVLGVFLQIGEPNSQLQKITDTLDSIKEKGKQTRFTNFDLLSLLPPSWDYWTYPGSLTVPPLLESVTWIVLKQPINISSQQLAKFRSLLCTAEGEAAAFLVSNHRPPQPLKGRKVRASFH

[9] = biological target: LOC400500-PREDICTED: Homo sapiens hypothetical LOC400500 (LOC400500) (human)
[10] = biological target: T7, CTXN1-cortexin 1 (CTXN1) (human, UniProt P60606 1-82)
T7 sequence (looked up): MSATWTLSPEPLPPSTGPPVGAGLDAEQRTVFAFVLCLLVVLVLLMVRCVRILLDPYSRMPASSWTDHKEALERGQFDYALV

[11] = biological target: FTL-ferritin, light polypeptide (FTL) (human, UniProt P02792 1-175)
Chain of FTL-ferritin, light polypeptide (FTL) (P02792 whole entry): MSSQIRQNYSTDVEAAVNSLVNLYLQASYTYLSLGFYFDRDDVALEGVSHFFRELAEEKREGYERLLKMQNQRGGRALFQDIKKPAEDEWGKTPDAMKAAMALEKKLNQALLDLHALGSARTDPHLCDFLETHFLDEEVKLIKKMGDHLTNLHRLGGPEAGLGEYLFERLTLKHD

[12] = biological target: T8, LYRM7-Lyrm7 homolog (mouse) (LYRM7) (human, UniProt Q5U5X0 1-104)
T8 sequence (looked up): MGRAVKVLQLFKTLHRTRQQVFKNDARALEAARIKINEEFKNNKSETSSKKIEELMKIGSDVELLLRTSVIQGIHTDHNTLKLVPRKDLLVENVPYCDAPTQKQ

B1: 3× Flag-3×MBT (designed binder)
chain: EEWSSSQPATGEKKECWSWESYLEEQKAITAPVSLFQDSQAVTHNKNGFKLGMKLEGIDPQHPSMYFILTVAEVCGYRLRLHFDGYSECHDFWVNANSPDIHPAGWFEKTGHKLQPPKGYKEEEFSWSQYLRSTRAQAAPKHLFVSQSHSPPPLGFQVGMKLEAVDRMNPSLVCVASVTDVVDSRFLVHFDNWDDTYDYWCDPSSPYIHPVGWCQKQGKPLTPPQDYPDPDNFCWEKYLEETGASAVPTWAFKVRPPHSFLVNMKLEAVDRRNPALIRVASVEDVEDHRIKIHFDGWSHGYDFWIDADHPDIHPAGWCSKTGHPLQPPLGPREPSSASPGG
notes: also called Flag-tagged 3×MBT; 3xFlag-3xMBT; not shown: made by PreScission cleavage of GST-3× Flag-3×MBT
[1]
  GST Average SNR: 1.05
[2]
  GST Average SNR: 0.566
[3]
  GST Average SNR: -0.788
[4]
  GST Average SNR: -0.425
[5]
  GST Average SNR: -0.483
[6]
  GST Average SNR: 1.16
[7]
  GST Average SNR: -0.11
[8]
  GST Average SNR: 0.728
[9]
  GST Average SNR: -0.119
[10]
  GST Average SNR: 1
[11]
  GST Average SNR: 0.717
[12]
  GST Average SNR: 0.278
